Measurements taken from the supplement of paper PMC9170038.

Tested on: K4 kissing-loop RNA reporter
Experiment: apparent KD of K4 kissing-loop reporter; higher = weaker reporter binding
Details: Eterna round: R107
Method: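 RNA-MaP round R107: designed RNA switches with theophylline, tryptophan, arginine or FMN aptamers are transcribed on-chip within common flanks. They are titrated with a labelled K4 kissing-loop RNA reporter in RNA-MaP buffer (100 mM Tris pH 7.5, 80 mM KCl, 4 mM MgCl2), without ligand or with the indicated ligand. Median apparent KD per design.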

[1] = input ligand: theophylline 20 uM
[2] = input ligand: tryptophan 2.4 mM
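Note: bound reporter read as fluorescence of individual clusters on recovered sequencing chips by microscopy, with normalized cluster intensities fitted with a binding model.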

| Sequence | apparent KD of K4 kissing-loop reporter (input ligand: FMN 200 uM) [nM] | apparent KD of K4 kissing-loop reporter (input ligand: arginine 13.2 mM) [nM] | apparent KD of K4 kissing-loop reporter (input ligand: none) [nM] | apparent KD of K4 kissing-loop reporter [1] [nM] | apparent KD of K4 kissing-loop reporter [2] [nM] |
| --- | --- | --- | --- | --- | --- |
| UGACUGGACUGAAGGAGCGUUCAGGUAGGUCGCUAUGGAGUGAUGUUCCAUAGAAGGAGCGAACAGGUAGGUCGCAGUCUAGUCU [ArgBS 30 #DoubleAptamer #SwitchBubble] | 181 | 100 | 111 | 167 | 120 |
| AACUUUUAAUGAAUUACAUUUUAUUUAUCUCGAGGACCGGUACGGCCGCCACUCGUACUAUAGUGAUGUUAUAGAUAAGUCCUAA [JR_ExcTryptoA_Sub019] | 149 | 212 | 179 | 233 | 73.8 |
| UAAUCCUAGUGAUACUUAUCAAGUGGUGGGCGAGGACCGGUACGGCCGCCACUCGAAUAUGCAGUGAUGUUGUAAUCCGGAUAAU [Exclusion - Tryptophan A (Freestyle 8)] | 668 | 722 | 997 | 1500 | 397 |
| AGAACUGUCUGAGAUACCAGCCAAGGAGUGAUGUUCCGGCUCGACGAAACGUCGAGCAAUGGCCCUUGGCAGCUCAGACAGUUCA [Omei KL Theo B SS A v3] | 387 | 80.9 | 182 | 398 | 242 |
| AAUUGGCAGUGAUGUUGUCAAGGACAUACGAAGGAUAUAAGUGAAGUUAGAAGGUCGACCAUCACUUCUUUGCCAUUUGCAUGAC [theeternabot_exclusion_KL_FMN_A_20] | 238 | 214 | 207 | 243 | 193 |
| UCGCGUCUGCGAGGAUAUCGGAUUAGAGUGAUGUUCUAUAAACGCCCAGUGAUGUUGGAUGCGAUACGAGAAGGCGCUGGGCGCA [Same State FMN B GF8] | 178 | 280 | 203 | 321 | 167 |
| GCCCUUCAGGUCGGAGUGAUGUUCCAAUGGAAGGAUAUCCGGGCUCGGAGAAGGUCCAAUUGUGUCUUGUUAAGGUGCUCACUAC [theeternabot_sameState_KL_FMN_A_46] | 251 | 221 | 215 | 203 | 223 |
| GGUAGUGCUAGCGAUACCAGUCAUAUCGCUCUGGAGUGAUGUUCCGGAACGUGCGGAGAAGACCCUUGGCAGCGCUUGACUGGAA [Exclusion Theophylline B GF6] | 758 | 539 | 574 | 538 | 736 |
| UUCCAGUGAUGUUGGUAUCUGAUAAGGGAAGGAGCGCGGAUUAACGCAGGUAGGUCGCCCAAGUAAUAAAUGUUUAUUAAUUGAU [Default title] | 183 | 193 | 201 | 161 | 188 |
| GCUACUGCUGAAGGAUAUAUCAAUAGAGUGAUGUUCUAUGUCGGUAGCCCGAAAGGGCUACCGACGGUAGAAGGUCAGCAGUAGC | 182 | 1090 | 1560 | 1120 | 960 |
| CCUUCUCUUGAUAGUGAUGUUAUCAAGGACAAGGAUAUCAUCUCAAUGAGAAGGUGUCCUUGAUAACAUGGAGGUCUGAAACAGA [Omei KL FMN A Exc C v3] | 148 | 249 | 287 | 407 | 385 |
| GGACGCCGGUCGGCCGCCACUCACAGCAGUGAUGUUGCUGAGCUUGUAGCGGAGUGAUGUUCCGAGAGGACCGGGACUGCAGUUU [Same State Tryptophan B GF 10] | 522 | 506 | 739 | 550 | 532 |
| CGCCAGUGAUGUUGGCGCAGCUACCGGGAAGGAGCGCCGUAGUCGGCAGGUAGGUCGCCCGGGCAGUGAUGUUGCCUCAUACCGU [Exclusion Arginine A GF 21] | 229 | 247 | 258 | 347 | 236 |
| GGAGCAGGUGAAGGAUAUCCCGGGCCAGAGUGAUGUUCUGGAUCCCUUGCCGUGUCUAAACGGGUGGGAGAAGGUCACUGAUAAG [Erinxe] | 137 | 187 | 213 | 178 | 231 |
| CCUAUCUCAUACGAUACCAGUCUAUUAAAACGAGUGAUGUUCGAAAAUUUGCCAUAUAAUGACCCUUGGCAGCGUAUGGGAUAGG [Ex Theophylline B K4 8] | 201 | 185 | 203 | 211 | 176 |
| GUUACGCAUGGAAGGAGCGCAUGCUCAGCUAUAAGCUCAGUGAUGUUGAGCAUUUUUUUUUUGCAGGUAGGUCGCCAUGUGUAAC [Ex Arginine B K4 30] | 172 | 188 | 218 | 191 | 170 |
